From paper PMC4557304

What was measured:
Test in all cases: EMSA; with POLγB; 10 mM Mg2+, 3 mM dCTP, 0.3 mM ddGTP; EMSA: 15 µl, 10 fmol DNA, 450 fmol POLγA, 1.8 pmol POLγB where indicated; 20 mM Tris-HCl pH 7.5, 1 mM DTT, 0.1 mg/ml BSA, 10 mM MgCl2, 10% glycerol, 3 mM dCTP
[1] = biological target: POLγA H277L;POLγB (human?;human?, UniProt P54098;Q9UHN1 26-1239;25-485, H277L|)
[2] = biological target: POLγA R275Q;POLγB (human?;human?, UniProt P54098;Q9UHN1 26-1239;25-485, R275Q|)
[3] = biological target: POLγA R232H;POLγB (human?;human?, UniProt P54098;Q9UHN1 26-1239;25-485, R232H|)
Chain of POLγA R232H;POLγB (P54098 26-1239 R232H, chain 1 of 2): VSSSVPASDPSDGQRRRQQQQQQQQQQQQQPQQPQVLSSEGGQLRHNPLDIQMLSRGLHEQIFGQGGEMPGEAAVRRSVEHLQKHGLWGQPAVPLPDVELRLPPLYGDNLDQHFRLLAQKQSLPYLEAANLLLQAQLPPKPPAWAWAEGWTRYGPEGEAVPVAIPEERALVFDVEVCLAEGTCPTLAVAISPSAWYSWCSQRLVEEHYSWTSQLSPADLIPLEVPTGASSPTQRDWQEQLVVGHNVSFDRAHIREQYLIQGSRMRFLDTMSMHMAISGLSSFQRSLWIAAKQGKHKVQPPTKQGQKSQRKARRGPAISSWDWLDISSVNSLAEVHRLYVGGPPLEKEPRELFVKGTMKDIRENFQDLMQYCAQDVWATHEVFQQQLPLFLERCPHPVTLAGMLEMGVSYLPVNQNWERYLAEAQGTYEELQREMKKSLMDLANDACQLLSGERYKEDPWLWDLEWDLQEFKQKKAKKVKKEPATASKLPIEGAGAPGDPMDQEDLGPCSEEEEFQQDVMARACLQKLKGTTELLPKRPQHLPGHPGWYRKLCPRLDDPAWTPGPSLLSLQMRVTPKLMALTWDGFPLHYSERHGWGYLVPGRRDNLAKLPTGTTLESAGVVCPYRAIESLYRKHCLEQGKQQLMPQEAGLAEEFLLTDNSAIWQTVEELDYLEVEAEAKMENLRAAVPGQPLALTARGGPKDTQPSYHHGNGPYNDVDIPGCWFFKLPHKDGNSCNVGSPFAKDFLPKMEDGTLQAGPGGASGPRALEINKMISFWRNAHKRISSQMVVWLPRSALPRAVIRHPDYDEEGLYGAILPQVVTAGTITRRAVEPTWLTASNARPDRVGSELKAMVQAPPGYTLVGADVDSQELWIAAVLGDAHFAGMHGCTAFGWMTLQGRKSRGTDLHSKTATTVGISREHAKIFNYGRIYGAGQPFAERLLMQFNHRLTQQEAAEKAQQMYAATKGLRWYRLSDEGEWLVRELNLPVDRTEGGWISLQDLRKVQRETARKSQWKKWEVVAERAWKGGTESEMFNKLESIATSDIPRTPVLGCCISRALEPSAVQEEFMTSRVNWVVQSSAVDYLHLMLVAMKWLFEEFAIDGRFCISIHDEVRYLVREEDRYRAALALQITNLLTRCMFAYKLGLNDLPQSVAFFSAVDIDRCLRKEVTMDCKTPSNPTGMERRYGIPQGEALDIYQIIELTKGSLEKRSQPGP
Chain of POLγA R232H;POLγB (Q9UHN1 25-485, chain 2 of 2): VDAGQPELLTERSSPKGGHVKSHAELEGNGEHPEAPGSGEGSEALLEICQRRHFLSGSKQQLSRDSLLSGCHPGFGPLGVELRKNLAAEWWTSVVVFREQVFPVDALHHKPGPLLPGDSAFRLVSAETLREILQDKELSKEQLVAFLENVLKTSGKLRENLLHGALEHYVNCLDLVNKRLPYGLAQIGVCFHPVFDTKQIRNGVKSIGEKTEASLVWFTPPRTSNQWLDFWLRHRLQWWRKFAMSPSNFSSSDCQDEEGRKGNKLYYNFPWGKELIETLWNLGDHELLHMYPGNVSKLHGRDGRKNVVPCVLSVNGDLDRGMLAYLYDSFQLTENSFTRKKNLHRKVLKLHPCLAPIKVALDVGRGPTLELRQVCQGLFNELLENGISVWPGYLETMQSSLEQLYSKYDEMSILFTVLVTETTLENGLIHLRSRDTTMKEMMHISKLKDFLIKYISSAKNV

[4] = biological target: POLγA L304R;POLγB (human?;human?, UniProt P54098;Q9UHN1 26-1239;25-485, L304R|)
Chain of POLγA L304R;POLγB (P54098 26-1239 L304R, chain 1 of 2): as the sequence (P54098 26-1239 R232H, chain 1 of 2) above, with H207R, L279R counted along it
Chain of POLγA L304R;POLγB (Q9UHN1 25-485, chain 2 of 2): as the sequence (Q9UHN1 25-485, chain 2 of 2) above

[5] = biological target: POLγA G268A;POLγB (human?;human?, UniProt P54098;Q9UHN1 26-1239;25-485, G268A|)
Chain of POLγA G268A;POLγB (P54098 26-1239 G268A, chain 1 of 2): as the sequence (P54098 26-1239 R232H, chain 1 of 2) above, with H207R, G243A counted along it
Chain of POLγA G268A;POLγB (Q9UHN1 25-485, chain 2 of 2): as the sequence (Q9UHN1 25-485, chain 2 of 2) above

[6] = biological target: POLγA S305R;POLγB (human?;human?, UniProt P54098;Q9UHN1 26-1239;25-485, S305R|)
Chain of POLγA S305R;POLγB (P54098 26-1239 S305R, chain 1 of 2): as the sequence (P54098 26-1239 R232H, chain 1 of 2) above, with H207R, S280R counted along it
Chain of POLγA S305R;POLγB (Q9UHN1 25-485, chain 2 of 2): as the sequence (Q9UHN1 25-485, chain 2 of 2) above

[7] = biological target: POLγA G303R;POLγB (human?;human?, UniProt P54098;Q9UHN1 26-1239;25-485, G303R|)
Chain of POLγA G303R;POLγB (P54098 26-1239 G303R, chain 1 of 2): as the sequence (P54098 26-1239 R232H, chain 1 of 2) above, with H207R, G278R counted along it
Chain of POLγA G303R;POLγB (Q9UHN1 25-485, chain 2 of 2): as the sequence (Q9UHN1 25-485, chain 2 of 2) above

Measured: binding result

Chain of POLγA H277L;POLγB (P54098 26-1239 H277L, chain 1 of 2): as the sequence (P54098 26-1239 R232H, chain 1 of 2) above, with H207R, H252L counted along it
Chain of POLγA H277L;POLγB (Q9UHN1 25-485, chain 2 of 2): as the sequence (Q9UHN1 25-485, chain 2 of 2) above
Chain of POLγA R275Q;POLγB (P54098 26-1239 R275Q, chain 1 of 2): as the sequence (P54098 26-1239 R232H, chain 1 of 2) above, with H207R, R250Q counted along it
Chain of POLγA R275Q;POLγB (Q9UHN1 25-485, chain 2 of 2): as the sequence (Q9UHN1 25-485, chain 2 of 2) above

B1: primed DNA template (20/35-mer) (dsDNA)
DNA 1: CGGTCGAGTCTAGAGGAGCC
DNA 2: GACTACGTCTATCCGGGCTCCTCTAGACTCGACCG
binds: [1] | [2] | [3] | [4] | [5] | [6] | [7]
